Reference: the supplement of paper PMC12042874
± gives the uncertainty stated by the source.

Test: amyloid nucleation score (Sup35N fusion, yeast selection) (log enrichment); library NNK1; higher = more nucleation; inactive = no reads after selection
How it was run: (§1)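 Peptides of 20 random codons fused to Sup35N were expressed in psi-negative yeast, induced 24 hours with 100 μM copper sulfate, then grown 7 days at 30°C on medium lacking adenine and uracil. Input and output plasmid inserts were Illumina-sequenced. Nucleation score is the DiMSum log enrichment of output over input reads, centred on the mode score of non-aggregating sequences, excluding sequences with under 100 input reads. Random libraries had three technical output replicates.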

Row | Substance | amyloid nucleation score
1 | VLEYKD | -1.97 ± 2.4
2 | TENCDLCKQLAAVLC | -0.812 ± 0.93
3 | ESTGQFYSPGSWVQGWTAYM | 0.398 ± 0.66
4 | FWAHMMRIASNYKFSLYL | inactive
5 | MDALMCYIFFKFE | 4.89 ± 0.064
6 | VPSNLQGSPFPQLGMSALVH | 0.149 ± 0.62
7 | MVSPPLNTSIYLIPCSSLCD | -0.407 ± 0.25
8 | RYRPSVCRS | 0.872 ± 0.54
9 | KAFLTRRFLNLYVRIKPYMV | -0.503 ± 0.3
10 | KRERGKISIEEAMRQAGQRS | 0.578 ± 0.7
11 | GHIHFWASRDLPTKCHILGL | -0.181 ± 0.67
12 | HVTNSWNSKGLRTSSGDTNV | 0.305 ± 0.4
13 | NMGSFELWYYGLKASVGFAN | 0.513 ± 0.4
14 | YTGIPRSS | 0.203 ± 0.28
15 | GLGLHWSEASFRLRMDRRFA | 3.79 ± 0.069
16 | LIMILGIRDHLTNCGGKVLQ | 2.03 ± 0.3
17 | SHCCLDQLGVSDKAR | 0.142 ± 0.62
18 | RGIKCPVSCKIASSRREWWV | 0.789 ± 0.37
19 | RARDV | 0.167 ± 0.38

Test: amyloid nucleation score (Sup35N fusion, yeast selection) (log enrichment); library NNK2; higher = more nucleation; inactive = no reads after selection
How it was run: as §1

Row | Substance | amyloid nucleation score
20 | LWSVYYMSVIIFPFGKHPKQ | 7.149 ± 0.056
21 | AIFYDLMVNQRFVFTSFLWL | -0.14 ± 0.74
22 | AGFSSDGLQVMIIYD | 0.379 ± 0.31
23 | QIPCCWGPYVWSRAMGCSLE | 1.78 ± 0.15
24 | MLCKRPWVTLFRLSKCFTSD | 0.33 ± 0.56
25 | RRVPEKGLLGLYSGGLIAEV | -0.299 ± 0.74
26 | SLKITSYSVCVCCLCMNCNT | 7.6 ± 0.052
27 | AYSVRLDLSCDQRCSF | 4.366 ± 0.041
28 | GRRHVNFCSRTDYRAGPHRY | 0.112 ± 1.1
29 | AFTWLY | 0.942 ± 0.26
30 | NGSRSSMSGARERYCYIRVS | inactive
31 | CDSARFEGNVEAAR | -0.134 ± 0.34
32 | YFGTVHAILGFICLCLIIFQ | 3.66 ± 0.085
33 | GFICMVMDKCYYRGRNFVGV | -0.106 ± 0.44
34 | LTVRS | -0.42 ± 0.76
35 | NRWKHYTDGSTL | -0.02 ± 0.39
36 | ISSKITRLSPGGLVS | inactive
37 | KLSSRYIYLYSRYEPSS | inactive
38 | GYNKLSLSL | -0.863 ± 0.64
39 | VRRCIVRI | 0.267 ± 0.4
40 | CADAITRHAGTFVAGWSW | 0.865 ± 0.17
41 | WPFRESVY | 0.41 ± 0.5
42 | IIKLGESNPKSPFGTLYYGF | -0.213 ± 1.1
43 | WAWIHSADLNYNCVMRGCLP | 2.16 ± 0.14
44 | KRVLDSGFN | -0.845 ± 1
45 | LKTIMCFCQIYLFNSDPVHF | 3.37 ± 0.11

Row | Substance | amyloid nucleation score
46 | GMGVYYVSSFSLRLWNGMTV | 1.65 ± 0.13
47 | MSMLPCGSVYFNTRNAYLWL | 6.678 ± 0.065
48 | SLLGVENNCVISFTTIFVVS | 5.11 ± 0.088
49 | NWLLN | -0.492 ± 0.76
50 | DSSVQRRLS | 0.121 ± 0.56
51 | RENVVSGHDRNECAGLMSRG | 0.343 ± 0.27
52 | WVIDACLNRPLSERSYYRNK | 0.767 ± 0.58
53 | IIVCVSGIYLSMSQ | 6.007 ± 0.035
54 | RFDQGVGTLWHVSLVTE | -0.107 ± 1
55 | QLIMS | inactive
56 | RSLIKSRVIWGRKCSSRFIR | -0.64 ± 0.32
57 | YGRVITGCLCQCIGDDGCGD | 6.595 ± 0.039
58 | LLMFAMYIQIRLLSTATYIV | -0.564 ± 0.79
59 | WLQAHGIVYLNICRNSGFVH | 5.12 ± 0.058
60 | NFIRDSMVTCRYEKDLGA | 0.713 ± 0.8
61 | VMVFVCVAYEYEFSPIRGPE | inactive
62 | KGIQYSTLVTRRFWMW | 3.68 ± 0.088
63 | IFGFGMFKWKTFLTLSVFV | -0.223 ± 0.76
64 | SWTLFKTLMWIRHILFVECR | -0.973 ± 0.55
65 | RFFNPNMLKFALSGQ | -1.37 ± 0.44
66 | SGVPYVNNMEASELSWGKIP | inactive
67 | IWRSRKLHDMYTVVRGVASD | 0.182 ± 0.56
68 | RLPASWLVAPGCRWPCLPRN | 1.78 ± 0.22
69 | HFVRVSFGCCLVTLSMRVDR | 0.669 ± 0.26
70 | CMSTDTTLVATMMLQTESA | 0.441 ± 0.23
71 | FEGVTYSRVV | 0.001 ± 0.54

Row | Substance | amyloid nucleation score
72 | CLRVVCLRGLFYYANSACQV | -0.199 ± 0.54
73 | IGLKVSSFNDKVLSGA | -0.285 ± 0.63
74 | STVEVRGYLDAVMVGVVSNS | 3.8 ± 0.052
75 | VGGGTECVLSRQEFGCWLLW | 0.649 ± 0.48
76 | LNVWRLFRRWWEWRRDCEFA | 0.435 ± 0.37
77 | RLSCFMNRGVREDSDSN | -0.766 ± 0.61
78 | ASGEVMYVNHYVFPQAFTDE | inactive
79 | QKNLEGLPEVEGNRRRCVVR | 0.033 ± 0.52
80 | RQQIFYSRDVQVNVGGN | inactive
81 | RTIVFTLWRDGITKFMVNRD | 0.452 ± 0.43
82 | MGRLNVYLNVRLISKVIGIQ | 3.63 ± 0.053
83 | KCPSESMRKFF | 0.672 ± 0.53
84 | WVQLWESASFGNRLVGNMSL | -0.352 ± 1
85 | YFMLRSVTL | 3.75 ± 0.1
86 | GLRFC | inactive
87 | CYRNAT | 0.475 ± 0.2
88 | TLFNMMIYSL | 1.09 ± 0.54
89 | WNKFNICFKGKAW | 0.123 ± 0.5
90 | NSIYLCLSAGRFDSMKVNSE | 4.22 ± 0.076
91 | IDRVVSTRSSGFVCGEAFCG | -0.365 ± 0.63
92 | KVFVAYGMAVMLFYICHSK | 4.561 ± 0.037
93 | IFPLPDLGAYSC | 0.47 ± 0.65
94 | LGFSGNI | inactive
95 | FQSHWVLERGI | -0.901 ± 1
96 | LHCLRDIIKRNKDSFPQMWG | -0.607 ± 0.33
97 | MGAAITSGEGYDLRLLIDNS | 0.208 ± 1.1

Row | Substance | amyloid nucleation score
98 | YRFHSTKRCINSGDNC | -0.14 ± 1
99 | RNRSKQDQWRNELSAGLHGV | -0.359 ± 0.45
100 | ARFSVILNSIYRFSYLCRRL | inactive
101 | YTWVYPF | -1.01 ± 0.33
102 | MCTSGGISG | 0.346 ± 0.5
103 | YIRLHYGGVRRKVFTTILVI | -0.26 ± 0.45
104 | HFCYSNNRWVSGAFYVSRPT | 1.78 ± 0.2
105 | DHVYICSSFAPKSTAMLC | 1.55 ± 0.38
106 | LGCHLVGLVNRGKNGGRISL | 0.315 ± 0.74
107 | LRYNIMWKQHNATAYDEYRA | 3.65 ± 0.12
108 | DIIFVDALMSVTSVQQNLH | -0.388 ± 0.55
109 | VEGRYAPKRSYVTPGWDV | -0.05 ± 0.55
110 | NSLLNFWEVTLLRGGTHMVF | -0.675 ± 0.29
111 | NLLRNRARWL | -1.08 ± 0.44
112 | SDSDLPGFRREGNRIRVWLG | 0.312 ± 0.49
113 | HSFLSGIKWLSSDLGDSVGY | -1.29 ± 0.62
114 | VIFAHGVFGECWFVYSLVFS | -0.784 ± 0.76
115 | NIRAKNRDFRLGLANRKETA | 1.15 ± 0.27
116 | VVVSVCSPLK | 0.258 ± 0.46
117 | RIWSFNGQTFVSNLSVSSVS | -0.773 ± 0.76
118 | SSIGMVDIVKTLMGK | -0.089 ± 0.61
119 | GFKILIEFWSATGRLQ | 3.97 ± 0.078
120 | SVDVKPVTQMTGTMVESTGS | 1.17 ± 0.28
121 | ISVKDCLYPQLL | -0.492 ± 1
122 | KHMLASSFVTVPFVAPCFHF | inactive
123 | YGRLRLVA | -0.637 ± 0.54

Row | Substance | amyloid nucleation score
124 | SKCIRLPFFTLLLTNMFHVA | inactive
125 | YCANDVVMLSA | 1.06 ± 0.17
126 | KKRQCGMVGLNLVGQYLHSF | -1.3 ± 0.62
127 | KGVCWVTICELHDW | -0.305 ± 0.48
128 | ISTSPMLACVASVRRSLIRT | 0.098 ± 0.74
129 | NMYFCLFFRIVLLLGNDKIA | -1.06 ± 0.6
130 | ARTICTFRHMSGIGAMGLDC | 0.289 ± 0.8
131 | VMIVFLDAFFGNLRANVVWY | -0.846 ± 0.49
132 | HLTSS | 0.772 ± 0.44
133 | SYGDRLALQR | 0.546 ± 0.8
134 | CANIMMKSKVYKFNERRSVK | -0.873 ± 0.62
135 | FSMDHDDRSSCKAWHRSEFE | 1 ± 0.2
136 | MQMLIYGWSMCFILGAQV | 0.479 ± 0.74
137 | ASCMS | -0.056 ± 0.32
138 | SSTAVSQILH | inactive
139 | MYRVEGL | inactive
140 | SVIDDHKKVKSGITRSYREK | 0.504 ± 0.15
141 | FYMYFPNRAYWVGLGLTPML | -0.365 ± 0.61
142 | YVAVYSCLSRGCTLS | 9.186 ± 0.077
143 | KEEVRSLFIGTFPKIFFGLH | 0.251 ± 0.46
144 | LTICS | -1.03 ± 0.78
145 | LDFALNCNSRFSLTQDS | 2.83 ± 0.13
146 | VLSNSEYVFTNR | -0.5 ± 0.28
147 | YTLCTMKLREWNRTSTWPSL | -0.003 ± 0.39
148 | RQVWLR | 0.854 ± 0.32
149 | LWVARHIRIEFMLTFRIYKA | 0.011 ± 1.1

Row | Substance | amyloid nucleation score
150 | LLHDDVNTYLVRTVRR | 0.322 ± 0.31
151 | KGVRVQDTNVGIWAGKWGVV | 0.883 ± 0.29
152 | KRTTLWTARSRLCERTLNCS | 0.324 ± 0.24
153 | LSHILMI | inactive
154 | VLFNYKLITGSMFCTRHTRP | 2.08 ± 0.11
155 | VLSRFLASKRNCPVPDSLG | 0.093 ± 0.29
156 | IVLYSGCVYKD | 0.218 ± 0.33
157 | DGSDREPKVSALWLHVRRTA | 2.17 ± 0.13
158 | STATHSWGCFSWNSCFHGRQ | 9.493 ± 0.05
159 | GLREKDN | -0.036 ± 0.32
160 | IEDSEREMACINPGFSFVVV | -1.83 ± 1.1
161 | SVSCIKFIHSLAEYGMSKEN | 0.697 ± 0.16
162 | DFPRRWSWFITRESWGVWRT | 1.65 ± 0.34
163 | GGMYKSMRGWLTGCFVAWVV | 0.369 ± 0.34
164 | WEDGTFEV | -0.219 ± 0.61
165 | LSLFSYPLHAPFLTMVSWPY | -0.78 ± 0.78
166 | LRAHFWGDD | 0.335 ± 0.31
167 | WFVTNGCFYSLCLTHG | 5.996 ± 0.028
168 | VLKQLLFFS | 4.357 ± 0.039
169 | FEKISSAFFGNYGLFMNWLS | -0.441 ± 0.78
170 | HYRWMSHADIMVFHNLCRYN | inactive
